Assay: yeast display, Sf9 membrane polyspecificity reagent, FACS + sequencing; frameworks hold sequencing errors
In short: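 Galactose induction of a Saccharomyces cerevisiae BJ5465 synthetic nanobody display library ran 36–48 hours. The cells were then stained for 1 hour at 4 °C with 10% biotinylated, detergent-solubilized Sf9 membrane reagent, pulled down on streptavidin microbeads and FACS-sorted into low and high (top ~1%) gates on expression and reagent-binding fluorescence. Labels for polyreactivity follow the gate of origin.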

With “QVQLVESGGGLVQAGGSLRLSCAASGFTFGRYAMGWYRQAPGKERELVAAITRGSGGSYYADSVKGRFTISRDIAKNTVYLQMNSLKPDDTAVYYCATGSRSRGALRYAHFDYWGQGTQVTVSS” as the sequence, how does the “polyreactivity (PSR sort gate)” value read?
The value was “high polyreactivity”.

With “QVQLVESGGGLVQAGGSLRLSCAASGFTFGSNAMGWYRPAAGKERELVASITTRGGSTYYADSVKGRFTISRDNAKNTVYLQMNSLKPEDTAVYYCAARARYPNWTYYYWGQGTQVTVSS” as the sequence, how does the “polyreactivity (PSR sort gate)” value read?
The value was “high polyreactivity”.

With “QVQLVESGGGLVQAGGSLRLSCAASGFTFGSNAMGWYRQAPGKERELVAAISSRGGRTYYADSVKGRFTISRDNAKNTVYLQMNSLKPEDTAVYYCNADATVAWREQEYEYWGQGTQVTVSS” as the sequence, how does the “polyreactivity (PSR sort gate)” value read?
Its value is “high polyreactivity”.

Which “polyreactivity (PSR sort gate)” value does the source give for “QVQLVESGGGLVQAGGSLRLSCAASGFTFGSNAMGWYRQAPGKERELVAAISWSGGRTYYADSVKGRFTISRDNAKNTVYLQMNILKPEDTAVFYCNKQYVKPWYRGYYYWGQGTQVTVSS” here?
The value was “high polyreactivity”.

With “QVQLVESGGGLVQAGGSLRLSCAASGFTFGSYAKGWYRQAPGKERELVAAIRASGGRTYYADSVKGRFTISRDNAKNTVFLQMNSLKPEDTAVYYCAADTGGNPKYDYWGQGTQVTVSS” as the sequence, how does the “polyreactivity (PSR sort gate)” value read?
The value was “high polyreactivity”.

For “QVQLVESGGGLVQAGGSLRLSCAASGFTFGSYAMGWYRQAPGKDRELVARISSDGSTNYADSVKGRFTISRDYAKNTVYLQMNSLKPEDTAVYYCAVRHRYTRAYWGRDYWGQGTQVTVSS”, which “polyreactivity (PSR sort gate)” value is on record?
Its value is “low polyreactivity”.

Which “polyreactivity (PSR sort gate)” value does the source give for “QVQLVESGGGLVQAGGSLRLSCAASGFTFGSYAMGWYRQAPGKEREFVAAITRSGGRTYYADSVKGRFTISRDNAKNTVYLQMNSLKPEDTAVSYCNAYRSALYTPEYDYWGQGTQVNVSS” here?
The value was “high polyreactivity”.

Which “polyreactivity (PSR sort gate)” value does the source give for “QVQLVESGGGLVQAGGSLRLSCAASGFTFGSYAMGWYRQAPGKERELVAAITSRGGSTYYADSVKGRFTISRDNAKNTVYLQMNSLKPEDTAVYYCNAVLPVYRTNMDYWGQGTQVTVSS” here?
Its value is “high polyreactivity”.

Which “polyreactivity (PSR sort gate)” value does the source give for “QVQLVESGGGLVQAGGSLRLSCAASGFTFGSYAMGWYRQAPGKERELVAAITWSGGSTYYADSVKGRFTISRDNAKNTVYLQMNSLKPEDTAVYYCNAEIRYYGYDYWGQGTQVTVSS” here?
The value was “high polyreactivity”.

Which “polyreactivity (PSR sort gate)” value does the source give for “QVQLVESGGGLVQAGGSLRLSCAASGFTFGSYAMGWYRQAPGKERELVAASTRRGDNTYYADSVKGRFTISRDNAKNTVYLQMNSLKPEDTAVYYCNVGLRSVVSGEYWGHGTQVTVSS” here?
The value was “high polyreactivity”.

Which “polyreactivity (PSR sort gate)” value does the source give for “QVQLVESGGGLVQAGGSLRLSCAASGFTFGSYAMGWYRQATGKERELVAVITRSGRTNYADSVKGRFTITRDNAKNTVFLQMNSMKPEDTAVYYCNADDVDDEVSPDLTEMDNWGLGTQVTVSS” here?
The value was “low polyreactivity”.

With “QVQLVESGGGLVQAGGSLRLSCAASGFTFGTYAMGWYRQAPGKERELVAAISKRGGSTYYADSVKGRFTISRDNAKNTVYLQMNSLKPEDTAVYYCATGSYTTYGYGYWGQGTQVTVSS” as the sequence, how does the “polyreactivity (PSR sort gate)” value read?
Its value is “high polyreactivity”.

Which “polyreactivity (PSR sort gate)” value does the source give for “QVQLVESGGGLVQAGGSLRLSCAASGFTFGVYAKGWYRQEPGKEREMVAAISSRRGSTYYADSVKGRFTISRDNAKNTVYLQMNSLKPEDTAVYYCAKRLGNTVGKEDYWGQGTQVTVTS” here?
Its value is “low polyreactivity”.

Which “polyreactivity (PSR sort gate)” value does the source give for “QVQLVESGGGLVQAGGSLRLSCAASGFTFGVYALGGYRQAPGKEREFVAAISRSGSSTYYADSVKGRFTISRDNAKNTVYLQMNSLKPEDTAVYYCAKRSGNRYSFDYWGQGTQVTVSS” here?
Its value is “high polyreactivity”.

For “QVQLVESGGGLVQAGGSLRLSCAASGFTFGWYAMGWYRQAPGKEREFVATITYSGGSTYYADSVKGRFTISRDNAKNTVYLQMNSLKPEDTAVYYCAAARYWYRRFDYWGQGTQVTVSS”, which “polyreactivity (PSR sort gate)” value is on record?
The value was “high polyreactivity”.

With “QVQLVESGGGLVQAGGSLRLSCAASGFTFGYYAMGWYRQAPGKERELVAAISRSGGRTYYADSVKGRFTISRDNAKNTVYLEMNSLKPEDTAVYYCNAVIHGWTLDYEYWGQGTQVTVSS” as the sequence, how does the “polyreactivity (PSR sort gate)” value read?
Its value is “high polyreactivity”.

With “QVQLVESGGGLVQAGGSLRLSCAASGFTFGYYAMGWYRQAPGKERELVAAISSSGGSTYYADSVKGRFTISRDNAKNTVYLQMNSLKPEDTAVYYCAVVVFSRVYRYFTSDYWGQGTQVTVSS” as the sequence, how does the “polyreactivity (PSR sort gate)” value read?
The value was “high polyreactivity”.

With “QVQLVESGGGLVQAGGSLRLSCAASGFTFGYYAMGWYRQAPGKERELVAAITYDGDITYYADSVKGRFTISRDNAKNTVYLQMNSLKPEDTAVYYCNRDVLTFNYDYWGQGTQVTVSS” as the sequence, how does the “polyreactivity (PSR sort gate)” value read?
Its value is “low polyreactivity”.

With “QVQLVESGGGLVQAGGSLRLSCAASGFTFGYYAMGWYRQAPGKERELVAAITYDGDITYYADSVKGRFTISRDNAKNTVYLQMNSLKPEVTAVYYCNRDVLTFNYDYWGQGTQVTVSS” as the sequence, how does the “polyreactivity (PSR sort gate)” value read?
Its value is “low polyreactivity”.

With “QVQLVESGGGLVQAGGSLRLSCAASGFTFGYYAMGWYRQAPGKERELVATIDRGGGTSYADSVKGRFTISRDNAKNTVYLQMNSLKPEDTAVYYCNRACYGAKARRYRSYWGQGTQVTVSS” as the sequence, how does the “polyreactivity (PSR sort gate)” value read?
Its value is “high polyreactivity”.

For “QVQLVESGGGLVQAGGSLRLSCAASGFTFGYYGMGWSRQAPGKERELVAGISSSGSRTYYADSVKGRFTISRDNAKNTVYLQMNSLKPEDTAVYYCNKYYSGKSYTGEDYWGQGTQVTVSS”, which “polyreactivity (PSR sort gate)” value is on record?
Its value is “high polyreactivity”.

For “QVQLVESGGGLVQAGGSLRLSCAASGFTFGYYTMGWYRQAPGKERELVAAITWRGTTYYADSVKGRFTISRDNAKNTVYLQMNSLKPEDTAVYYCATVVLLRIWGGYWGQGTQVTVSS”, which “polyreactivity (PSR sort gate)” value is on record?
The value was “high polyreactivity”.

For “QVQLVESGGGLVQAGGSLRLSCAASGFTFGYYTMGWYRQAPGKERELVASISRTGGRTYADSVKGRFTISRDNAKNTVYLQMNSLKPEDTAVYYCAAYRQGSAYDYWGQGTQVTVSS”, which “polyreactivity (PSR sort gate)” value is on record?
Its value is “high polyreactivity”.

With “QVQLVESGGGLVQAGGSLRLSCAASGFTFGYYVMGWYRQAPGKERELVAAITSGGRTKYADSVKGRFTISRDNAKNTVYLQMNSLKPEDTAVYYCAAKSRVHVDYWGQGTQVTVSS” as the sequence, how does the “polyreactivity (PSR sort gate)” value read?
The value was “high polyreactivity”.

Which “polyreactivity (PSR sort gate)” value does the source give for “QVQLVESGGGLVQAGGSLRLSCAASGFTFHFYAMGWYRQAPGKEREWVAAISWRGSSTYYADSVKGRFTISRDNAKNTVYLQMNSLKPEDTAVYYWNALYYYPYDYWGQGTQVTVSS” here?
Its value is “high polyreactivity”.

For “QVQLVESGGGLVQAGGSLRLSCAASGFTFHSYAMGWYIQAPGKERELVAAISARGGSTYYADSVKGRFTISRDNAKNTVYLQMNSLKPEDTAVYYCAAYSYQVRFYYWGHGTQVTVSS”, which “polyreactivity (PSR sort gate)” value is on record?
The value was “high polyreactivity”.

Which “polyreactivity (PSR sort gate)” value does the source give for “QVQLVESGGGLVQAGGSLRLSCAASGFTFHSYAMGWYRQAPGKERELVAAISYSGGSTYYADSVKGRFTISRDNAKNTVYLQMHSLKPEDTAVYYCAGLRYIYGYANDYWGQGTQVTVSS” here?
Its value is “low polyreactivity”.

With “QVQLVESGGGLVQAGGSLRLSCAASGFTFHYYAMGRYRQAPGKERELVAAISWDTGSTYYADSVKGRFTISRDNAKNTVYLQMNSLKPEDTAVYYCNAQFYWYHGEWVFYGLSDDFDYWGQGTQVTVSS” as the sequence, how does the “polyreactivity (PSR sort gate)” value read?
The value was “high polyreactivity”.

With “QVQLVESGGGLVQAGGSLRLSCAASGFTFHYYTMAWYRQAPGKEREFVAAMSKSGGRTYYADSVKGRFTISRDKAKNTVYLQMNSLKPEDTAVYYCSTVGYWRNRHDYWGQGTQVTVSS” as the sequence, how does the “polyreactivity (PSR sort gate)” value read?
Its value is “high polyreactivity”.

Which “polyreactivity (PSR sort gate)” value does the source give for “QVQLVESGGGLVQAGGSLRLSCAASGFTFHYYVMGWYRQAPGKERELVAAINAGGVSTYYADSVKGRFTISRDNAKNTVYLQMNSLKPEDTAVYYCNARVRVRLGRNWSSYYYWGQGTQVTVSS” here?
Its value is “high polyreactivity”.

With “QVQLVESGGGLVQAGGSLRLSCAASGFTFIDYTMGWYRQAPGKERELVARITDTGSTNYADSVKGRFTISRDNAKNTVYLQMNRLKPEDTAVYYCNKDDRNDRTIPGYDPEYDYWGQGTQVTVSS” as the sequence, how does the “polyreactivity (PSR sort gate)” value read?
The value was “low polyreactivity”.

For “QVQLVESGGGLVQAGGSLRLSCAASGFTFIRNAMGWYRQAPGKERELVAVITRSGGSTYYADSVKGRFTISRDNAKNTVYLQMNSLKPQDTAVYYCAATLRYSPRRRYDYWGQGTQVTVSS”, which “polyreactivity (PSR sort gate)” value is on record?
The value was “high polyreactivity”.

Which “polyreactivity (PSR sort gate)” value does the source give for “QVQLVESGGGLVQAGGSLRLSCAASGFTFIRYAMGWYIQAPGKERELVASISNRGGRTYYADSVKGRFTISRDNAKNTFYLQMNSLKPEDTAVYYCAAKFSSYWSRFGYWGQGTQVTVSS” here?
The value was “high polyreactivity”.

Which “polyreactivity (PSR sort gate)” value does the source give for “QVQLVESGGGLVQAGGSLRLSCAASGFTFIRYAMGWYRQAPGKEREFVAAISWRVGITYYADSVKGRFTMSRDNAKNTVYLQMNSLKPEDTAVYYCARDYRNPPFAYEYWGQGTQVTVSS” here?
The value was “low polyreactivity”.

Which “polyreactivity (PSR sort gate)” value does the source give for “QVQLVESGGGLVQAGGSLRLSCAASGFTFIRYAMGWYRQAPGKERELVATITRSGGSTYYADSVKGRFTISRDNAKNTVYLQMNSLKPEDTAVYYCAKRGTLGSYYYWGQGTQVTVSS” here?
The value was “high polyreactivity”.

With “QVQLVESGGGLVQAGGSLRLSCAASGFTFITNAMGLYRQAPGKERELVASISIGGSTNYADSVKGRFTISRDNAKNTVYLQMNSLKPEDTAVYYCAARVYRRLFLPGRYGRPLGYWGQGTQVTVSS” as the sequence, how does the “polyreactivity (PSR sort gate)” value read?
Its value is “high polyreactivity”.

With “QVQLVESGGGLVQAGGSLRLSCAASGFTFIYYAMGWYRQAPGKERELVAAISASGGSTYYADSVKGRFTISRDNSKNTVYLQMNSLKPEDTAVYYCDAYRVWYRGYPMGYWGQGTQVTVSS” as the sequence, how does the “polyreactivity (PSR sort gate)” value read?
The value was “high polyreactivity”.

With “QVQLVESGGGLVQAGGSLRLSCAASGFTFKDNTMGWYRQAPGKEGELVAAISSRGGSTYYADSVKGRFTISRDTAKNTVYLQMNSLKPEDTAVYYCAARSHSSRSRSPGDYWGQGTQVTVSS” as the sequence, how does the “polyreactivity (PSR sort gate)” value read?
The value was “high polyreactivity”.

For “QVQLVESGGGLVQAGGSLRLSCAASGFTFKFNTMGWYRQAPGKERELVAAISWRGGDTSYADSVKGRFTISRDNAKNNVYLQMNSLKPEDTAVYYCAASPRYPYWYDYWGQGTQVTVSS”, which “polyreactivity (PSR sort gate)” value is on record?
Its value is “low polyreactivity”.

For “QVQLVESGGGLVQAGGSLRLSCAASGFTFKGYAMGWYRQAPGKERELVAAITRGGSTYYADSVKGRFTISRDNAKNTVYLQMNSLKPEDTAVYYCAARGRGHGTTPNDYWGQGTQVTVSS”, which “polyreactivity (PSR sort gate)” value is on record?
Its value is “high polyreactivity”.

Which “polyreactivity (PSR sort gate)” value does the source give for “QVQLVESGGGLVQAGGSLRLSCAASGFTFKHYTMGWYRQAPGKERELVAAISYSGGSTYYADSVKGRFTISRDNAKNTVYLQMNSLKPEDTAVYYCAADAVKASVSYIVPYAAYDYWGQGTQVTVSS” here?
Its value is “low polyreactivity”.
